Reference: the supplement of paper PMC12764529
± gives the half width of the 95% confidence interval.

How the values were obtained:
[1] = folding stability dG unfold from chymotrypsin proteolysis; higher = more stable
In short: (§1)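 Unfolding free energy was derived, per protease or combined, against a sequence-predicted unfolded-state K50 and a shared folded-state K50, starting from K50 inferred by Bayesian fitting of sequencing counts. Digestion with trypsin and chymotrypsin was carried out on designed mini-proteins under 80 residues without cysteine in a PA-tagged cDNA display construct. Only designs with AlphaFold2 dimer inter-PAE above 15 were kept.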

[2] = folding stability dG unfold (combined trypsin and chymotrypsin); higher = more stable
In short: as §1

[3] = folding stability dG unfold from trypsin proteolysis; higher = more stable
In short: as §1

Sequence | folding stability dG unfold [1] [kcal/mol] | folding stability dG unfold [2] [kcal/mol] | folding stability dG unfold [3] [kcal/mol]
SAGHQIVKRLARHMQEQGYPIEVDVTVEPYPDDGWVEITIDIEMQNEDGKWQPIGPITIYIPKEDANKLSAG [r5_413_TrROS] | 1.44 ± 0.11 | 1.34 ± 0.17 | 0.914 ± 0.07
SAGIEEVAKEIAETLEELLPSEYKILDAKAIPLPDDVVIVPITVQKFDPNGKPLGELQFVVVIPPGEASAGG [r19_28_TrMRF] | 0.519 ± 0.096 | 0.636 ± 0.062 | 0.639 ± 0.068
SAGIEIRIEAYMPWEEARDQVKEIARWLMSMFPGFKVDIDVDHEPVPNNMWVATVTIKIEPLPPGQPIFSAG [r5_936_TrROS] | 4.79 ± 0.066 | 4.56 ± 0.12 | 3.83 ± 0.1
SAGIKIEVEPSPGNGWYRIRIENPDLRKKLNEKFPDLKEITFPFKNPEDMPWEEMREHAIDQIKEFLPSAGG [r19_298_TrROS] | 1.03 ± 0.15 | 0.64 ± 0.24 | -0.197 ± 0.29
SAGIKPGDPVVIKFNVPPELREKIKEAFEKPGYEYEFHPETGEVTVVAPAENIDELMKLPYIEEIVPGSAGG [r19_212_TrMRF] | 0.768 ± 0.1 | 0.817 ± 0.15 | 0.891 ± 0.052
SAGIPLGPEQLRALAEELAEEFKKKLAEELGLSPEDIKLLSIRRLPDGSIEIELEIPDRTYRYTFPLPDSAG [r5_565_JUSTAS] | 3.02 ± 0.042 | 3.1 ± 0.16 | 3.2 ± 0.17
SAGIPPDDPNDIYIVPVKITPVPDGSLQIEIIIVWPDGEVYTMEQEFDPNGNIEEMDMEPMPPEDIKESAGG [r19_285_TrROS] | 1.31 ± 0.081 | 1.2 ± 0.14 | 1.1 ± 0.1
SAGKAELVEVTIEGDKLTALFKIPETGGLVLAEAEFDNGIVKVKAKFYSPSGKPLGEAEFTLPASELKLSAG [r5_308_TrMRF] | 2.73 ± 0.067 | 2.48 ± 0.12 | 1.83 ± 0.1
SAGKAIFTVVPIIPKTGKKYSISKFEITLKEGEKIPIKAIADKIPPKNYIVETEIHPDHIHVTVYVLDGSAG [r5_269_TrMRF] | 1.61 ± 0.11 | 1.25 ± 0.17 | 0.665 ± 0.08
SAGKALSPEELARYVREKYGLPADAPITIEEVPGKYTLSLPDLRVEVTVTDDTTTVTLRPPDPGPEAALSAG [r5_190_JUSTAS] | 1.57 ± 0.16 | 1.42 ± 0.14 | 0.97 ± 0.044
SAGKARIVEYDEESGTITIEVDGKTIEIELAPGETAEITLEENEDGTLTLTITVNGKTLTLTIPLDDLKSAG [r5_500_TrROS_Hall] | 3.47 ± 0.12 | 3.15 ± 0.13 | 2.61 ± 0.18
SAGKEEAEKNKIAVLHLELYHPDGTKVSITIAFHPDKPEAVIEELTKLGYPLKDLIKNHPDLKILKIEPSAG [r5_430_TrMRF] | 1.57 ± 0.044 | 1.71 ± 0.11 | 1.71 ± 0.092
SAGKEKKPPKKVTLTLEIEIEVPEEEEEKAKELAEELEEELRKLGIEKVEVEYDKETKRVRIRVTVVLPSAG [r5_512_TrROS_Hall] | 3.01 ± 0.094 | 2.74 ± 0.36 | 2.22 ± 0.086
SAGKEKVLVIPVKVKPGEKIVVKVPSNSKILIIDLESGEIYEIDVPENVEPVFILPENKEYLIAVVFKSAGG [r19_78_TrMRF] | 3.92 ± 0.086 | 3.38 ± 0.11 | 2.66 ± 0.081
SAGKEVEIKIEIVIKMTPEELKKLAEELAKKLKEAGFEVEVTVEEKEVNGELYAVITVTVRLPPGAKPPSAG [r5_217_TrROS_Hall] | 4.11 ± 0.26 | 3.67 ± 0.42 | 2.81 ± 0.36
SAGKFKIVKVEIKDGKITITVKNEKTGELVKKEITFDKKTKKLKIKLYNKNGKLIKEETKTLSLEELKKSAG [r5_308_TrROS_Hall] | 2.66 ± 0.071 | 2.49 ± 0.096 | 2.06 ± 0.093
SAGKFPFMIKIEDKDGKPKDEIPIPAEELQDDPEKFLEIVETIADEFSKDGYRVKIYFPGTGQPIEIPISAG [r14_972_TrROS] | 1.32 ± 0.15 | 0.859 ± 0.2 | 0.418 ± 0.2
SAGKIEFPMPNGYWFRIEIDPENNKVKVEYSPHNGQYKVKIPGKEEVQIPIKGMPFEEMAKEIIEKLLKSAG [r5_447_TrROS] | 1.13 ± 0.19 | 0.962 ± 0.4 | 0.776 ± 0.17

Sequence | folding stability dG unfold [1] [kcal/mol] | folding stability dG unfold [2] [kcal/mol] | folding stability dG unfold [3] [kcal/mol]
SAGKIIKFKTKANENASITVPEENKILKIKVYKPNGTLLDEYEVEVKPNKTLVLNIPDDNLYVVVEPIPSAG [r5_797_TrMRF] | 1.17 ± 0.1 | 0.975 ± 0.057 | 0.56 ± 0.025
SAGKIKIDVMPPGWFLRIKIEHGGKEQERMIPIPGDSVDEIVKEALDEIQQHFPNKPIKVDIEIYPVDDSAG [r5_180_TrROS] | 1.29 ± 0.37 | 0.874 ± 0.37 | 1.03 ± 0.2
SAGKIKIPPGQEIWIIVNVEWQPDPDNGEPRYTVTVMKIKIKADPNGGLKIESIETKIVPAEDLKDNGLSAG [r5_340_TrROS] | 3.6 ± 0.078 | 3.06 ± 0.14 | 1.84 ± 0.036
SAGKIPPGEEQKKKIKLGGKEIKIKMWTYKNPDGQPHMMFRVEYDGEPGIFNPDSGRPMTPDDIKKMLKSAG [r5_138_TrROS] | 1.24 ± 0.35 | 0.788 ± 0.26 | 0.0292 ± 0.19
SAGKITINVMMNPDGNYYVKIRIGGDGEPIMEFPVDSPEDAEEKAKAFADNLAKKYPNYKIEVDYMPFDSAG [r5_383_TrROS] | 3.06 ± 0.066 | 3.64 ± 0.12 | 4.23 ± 0.32
SAGKIVIDKDNMKVYVTLPNGKKIELSLEELKKLLEELKKEGKPLTAEEIAEKLKKEFPGAEVEIVPVSAGG [r19_46_TrROS_Hall] | 4.01 ± 0.064 | 3.69 ± 0.083 | 2.38 ± 0.086
SAGKKIEIDMSLEELKKLPGIKKVEVKNGKVYLEVDGKKIEITIRPPKPVLEFKEGMSEEEKKELLKKLSAG [r5_2_TrROS_Hall] | 1.11 ± 0.1 | 1.22 ± 0.21 | 0.911 ± 0.093
SAGKKIHITLTEDELREIAEALGLEPEDMTAEELAARLREEFPDVEVTIEKPPVEEREREERELAEEEKSAG [r5_264_TrROS_Hall] | 0.984 ± 0.068 | 1.3 ± 0.14 | 1.76 ± 0.064
SAGKKIKIVKVEVTYDPETKEVTVKITIYNENGEKIKEIELTYEPGMSEEEVREKAEALVRKLIEEGKLSAG [r5_238_TrROS_Hall] | 2.24 ± 0.05 | 2.54 ± 0.1 | 2.75 ± 0.15
SAGKKKEEEKKKKEEKKKKEYYLVKVKIKNPNGEEKEIVLKAKSLEEAKKALEKLGLKVEIVEIKPIKVSAG [r5_233_TrROS_Hall] | 3.03 ± 0.11 | 2.71 ± 0.17 | 1.7 ± 0.11
SAGKKKIKIEIVKVEKNENGETIIRVKVKLEDGSEKEITINLDDLKNGNLKNMTAEEIAKLFPNIEIESAGG [r19_74_TrROS_Hall] | 1.58 ± 0.084 | 1.88 ± 0.18 | 2.35 ± 0.062
SAGKKKKEVKKITLVIEFPEEMTEEELKERAEKLAEELKKKFPKIKKIEVKVEKKDGKLIVTVEIEIEKSAG [r5_446_TrROS_Hall] | 1.78 ± 0.079 | 1.88 ± 0.15 | 2.02 ± 0.064
SAGKKKKIKVKIEIRVKKKYKTKDGKEVEEKEETITVEIEMTLEELKEAIKKLPENVEITKITKIEKESAGG [r19_114_TrROS_Hall] | 2.42 ± 0.058 | 2.26 ± 0.16 | 1.58 ± 0.11
SAGKKKKKPKVKEVIIVVKVENMTAEEIAKKLAEELNVEVTKVEVKDGYVTITLKDGSKIKIEVIPEEKSAG [r5_350_TrROS_Hall] | 1.76 ± 0.069 | 1.58 ± 0.15 | 1.35 ± 0.11
SAGKKKTLTLTLGNVTITITYDEDTGTLRIKVTATVTTVTLDKDTKELTTEKKTVTTEIEIPLAPGATLSAG [r5_195_TrROS_Hall] | 2.79 ± 0.086 | 2.67 ± 0.2 | 2.76 ± 0.18
SAGKKLIEAAKNNKKAVIPVKYKKYKITEKYKTKDGGTKYKAKLIEEKTYNVKLIKVDPKTGKIIIDPKSAG [r5_5_TrMRF] | 1.82 ± 0.28 | 1.75 ± 0.92 | 1.07 ± 0.13
SAGKKLKITDPEYKYYPNEGMYWVTIPIRFPDGKPIFDIDYPMPPGQSWDQVREQAKDIARWLIEEGLISAG [r5_238_TrROS] | 1.93 ± 0.13 | 1.52 ± 0.095 | 0.639 ± 0.059
SAGKKLLVVVEIRVFDKDGKLVREERLVIEVPEEDEEALRRLLEEARRLAEALLPPGARVEIRVRVLPPSAG [r5_793_TrROS_Hall] | 3.82 ± 0.11 | 3.6 ± 0.15 | 2.98 ± 0.13
